Results published in patent publication US20260167959A1, “APTAZYME-BASED REGULATABLE GENE EXPRESSION SYSTEMS” (REJUVENATE BIO INC, priority 2022, published 2026).

Tested on: Renilla luciferase RNA
Test: Barcoded aptazyme variant library screen: un-cleaved Renilla luciferase RNA by barcode read counts, HEK293-T cells
Assay type: cell-based
Settings: triplicate
How it was run: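 Barcode sequencing of cDNA versus DNA, normalized per aptazyme, gave the un-cleaved Renilla luciferase RNA fraction and fold-change with versus without theophylline (triplicates). Library: T3H48 ribozyme with one of seven theophylline aptamer variants inserted at each position, placed in the Renilla 3′ UTR of a dual-luciferase vector.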

[1] = un-cleaved Renilla luciferase RNA by barcode read counts, with 1 mM theophylline (ON) over without theophylline (OFF), HEK293-T cells
[2] = un-cleaved Renilla luciferase RNA, HEK293-T cells cultured with 1 mM theophylline (ON) over without theophylline (OFF), barcode read counts

B1: RA451 (nucleic acid)
DNA: GCGCGTCCTGGATTCGCGGAAGAATACCAGCATCGTCTTGATGCCCTTGGAAGTCTAACGCGTACATCCAGCTGACGAGTCCCAAATAGGACGAAACGCGC
modifications: expressed or natural sequence
Fold change in RNA expression between the ON state and the OFF state [1]: 0.5

B2: RA459 (nucleic acid)
DNA: GCGCGTCCTGGATTCGCGGAAACGCGTACATCCAGCTGACGAGTCCCAAATAGGACGAAGGAATACCAGCATCGTCTTGATGCCCTTGGAAGTCCACGCGC
modifications: expressed or natural sequence
Fold change in RNA expression between the ON state and the OFF state [1]: 0.5

B3: RA455 (nucleic acid)
DNA: GCGCGTCCTGGATTCGCGGAAACGCGTACATCCAGCTGACGAGTCCCCGGAATACCAGCATCGTCTTGATGCCCTTGGAAGTCCGGCAAATAGGACGAAACGCGC
modifications: expressed or natural sequence
Fold change in RNA expression between the ON state and the OFF state [1]: 0.5

B4: RA445 (nucleic acid)
DNA: GCGCGTCGAGAATACCAGCATCGTCTTGATGCCCTTGGAAGTCTCCTGGATTCGCGGAAACGCGTACATCCAGCTGACGAGTCCCAAATAGGACGAAACGCGC
modifications: expressed or natural sequence
Fold change in RNA expression between the ON state and the OFF state [1]: 0.5

B5: RA443 (nucleic acid)
DNA: GCGCGTCCTGGATTCGCGGAAACGCGTACATCCAGCTGACGAGTCCCAAATAGGACGGAATACCAGCATCGTCTTGATGCCCTTGGAAGTCCGCGAAACGCGC
modifications: expressed or natural sequence
Fold change in RNA expression between the ON state and the OFF state [1]: 0.6

B6: RA444 (nucleic acid)
DNA: GCGCGTCCCGGAATACCAGCATCGTCTTGATGCCCTTGGAAGTCCGGCTGGATTCGCGGAAACGCGTACATCCAGCTGACGAGTCCCAAATAGGACGAAACGCGC
modifications: expressed or natural sequence
Fold change in RNA expression between the ON state and the OFF state [1]: 0.6

B7: RA461 (nucleic acid)
DNA: GCGCGTCCTGGATTCGCGGAAACGCGTACATCCAGGAGAATACCAGCATCGTCTTGATGCCCTTGGAAGTCTCCTGACGAGTCCCAAATAGGACGAAACGCGC
modifications: expressed or natural sequence
Fold change in RNA expression between the ON state and the OFF state [1]: 0.5

B8: RA045 (nucleic acid)
DNA: GAGAATACCAGCATCGTCTTGATGCCCTTGGAAGTCTCGCGCGTCCTGGATTCGCGGAAACGCGTACATCCAGCTGACGAGTCCCAAATAGGACGAAACGCGC
modifications: expressed or natural sequence
Fold change in RNA expression between the ON state and the OFF state [2]: 2.0 fold

B9: RA458 (nucleic acid)
DNA: GCGCGTCCTGGATTCGCGGAAACGCGTACATCCAGCTGACGAGTCCCAAATAGGACGAACCGGAATACCAGCATCGTCTTGATGCCCTTGGAAGTCCGGACGCGC
modifications: expressed or natural sequence
Fold change in RNA expression between the ON state and the OFF state [1]: 0.5

B10: RA457 (nucleic acid)
DNA: GCGCGTCCTGGATTCGCGGAAACGCGTACATCCAGCTGACGAGTCCCAAATAGGACGAAGTGATACCAGCATCGTCTTGATGCCCTTGGCAGCACTAACGCGC
modifications: expressed or natural sequence
Fold change in RNA expression between the ON state and the OFF state [1]: 0.5

B11: RA462 (nucleic acid)
DNA: GCGCGTCCTGGATTCGCGCCGGAATACCAGCATCGTCTTGATGCCCTTGGAAGTCCGGGAAACGCGTACATCCAGCTGACGAGTCCCAAATAGGACGAAACGCGC
modifications: expressed or natural sequence
Fold change in RNA expression between the ON state and the OFF state [1]: 0.4

B12: RA460 (nucleic acid)
DNA: GCGCGTCCTGGATTCGCAGTGATACCAGCATCGTCTTGATGCCCTTGGCAGCACTGGAAACGCGTACATCCAGCTGACGAGTCCCAAATAGGACGAAACGCGC
modifications: expressed or natural sequence
Fold change in RNA expression between the ON state and the OFF state [1]: 0.5

B13: RA466 (nucleic acid)
DNA: GCGCGTCCTGGATTCGCGGAACGGAATACCAGCATCGTCTTGATGCCCTTGGAAGTCCGACGCGTACATCCAGCTGACGAGTCCCAAATAGGACGAAACGCGC
modifications: expressed or natural sequence
Fold change in RNA expression between the ON state and the OFF state [1]: 0.4

B14: RA449 (nucleic acid)
DNA: GCGCGTCCTGGATTCGCGGAAACGCGTACATCCAGCTGACGAGTCCCAAATAGGACGAAACGCGAGTGATACCAGCATCGTCTTGATGCCCTTGGCAGCACTC
modifications: expressed or natural sequence
Fold change in RNA expression between the ON state and the OFF state [1]: 0.5

B15: RA044 (nucleic acid)
DNA: GCGGAGAATACCAGCATCGTCTTGATGCCCTTGGAAGTCTCCGTCCTGGATTCGCGGAAACGCGTACATCCAGCTGACGAGTCCCAAATAGGACGAAACGCGC
modifications: expressed or natural sequence
Fold change in RNA expression between the ON state and the OFF state [2]: 2.1 fold

B16: RA463 (nucleic acid)
DNA: GCGCGTCCTGGATTCGCGGAAACGCGTACATCCAGCTGACGAGTCGAGAATACCAGCATCGTCTTGATGCCCTTGGAAGTCTCGCCCAAATAGGACGAAACGCGC
modifications: expressed or natural sequence
Fold change in RNA expression between the ON state and the OFF state [1]: 0.4

B17: RA446 (nucleic acid)
DNA: GCGCGTCCTGGATTCCGGAATACCAGCATCGTCTTGATGCCCTTGGAAGTCCGGCGGAAACGCGTACATCCAGCTGACGAGTCCCAAATAGGACGAAACGCGC
modifications: expressed or natural sequence
Fold change in RNA expression between the ON state and the OFF state [1]: 0.5

B18: RA442 (nucleic acid)
DNA: GCGCGTCCTGGATTCGCGGAAACGCGTACATCCGGAATACCAGCATCGTCTTGATGCCCTTGGAAGTCCGCAGCTGACGAGTCCCAAATAGGACGAAACGCGC
modifications: expressed or natural sequence
Fold change in RNA expression between the ON state and the OFF state [1]: 0.6

B19: RA453 (nucleic acid)
DNA: GCGCGTCCTGGATTCGCGGAAACGCGTACATCCAGCTGACGAGTCCCAAATAGGACGAAACAGAATACCAGCATCGTCTTGATGCCCTTGGAAGTCTGCGC
modifications: expressed or natural sequence
Fold change in RNA expression between the ON state and the OFF state [1]: 0.5

B20: RA452 (nucleic acid)
DNA: GCGCGTCCTGGAGAATACCAGCATCGTCTTGATGCCCTTGGAAGTCTATTCGCGGAAACGCGTACATCCAGCTGACGAGTCCCAAATAGGACGAAACGCGC
modifications: expressed or natural sequence
Fold change in RNA expression between the ON state and the OFF state [1]: 0.5

B21: RA450 (nucleic acid)
DNA: GCGCGTCCTGGATTCGCGGAAACGCGTACATCCAGCTGACGAGTCCCAAATAGGACGAAACCCGGAATACCAGCATCGTCTTGATGCCCTTGGAAGTCCGGGCGC
modifications: expressed or natural sequence
Fold change in RNA expression between the ON state and the OFF state [1]: 0.5

B22: RA464 (nucleic acid)
DNA: GCGCGTCCTGGAGTGATACCAGCATCGTCTTGATGCCCTTGGCAGCACTATTCGCGGAAACGCGTACATCCAGCTGACGAGTCCCAAATAGGACGAAACGCGC
modifications: expressed or natural sequence
Fold change in RNA expression between the ON state and the OFF state [1]: 0.4

B23: RA447 (nucleic acid)
DNA: GCGCGTCCTGGATTCGCGGAAACGCGTACATCCAGCTGACGAGTCCGGAATACCAGCATCGTCTTGATGCCCTTGGAAGTCCCAAATAGGACGAAACGCGC
modifications: expressed or natural sequence
Fold change in RNA expression between the ON state and the OFF state [1]: 0.5

B24: RA454 (nucleic acid)
DNA: GCGCGTCCTGGATTCGCGGAAACGCGTACATCCAGCTGACGAGTCCAGAATACCAGCATCGTCTTGATGCCCTTGGAAGTCTCAAATAGGACGAAACGCGC
modifications: expressed or natural sequence
Fold change in RNA expression between the ON state and the OFF state [1]: 0.5

B25: RA465 (nucleic acid)
DNA: GCGCGTCCTGGATTCGCGGAAACGCGTACATCCAGCTGACCGAGAATACCAGCATCGTCTTGATGCCCTTGGAAGTCTCGGAGTCCCAAATAGGACGAAACGCGC
modifications: expressed or natural sequence
Fold change in RNA expression between the ON state and the OFF state [1]: 0.4

B26: RA441 (nucleic acid)
DNA: GCGCCCGGAATACCAGCATCGTCTTGATGCCCTTGGAAGTCCGGGTCCTGGATTCGCGGAAACGCGTACATCCAGCTGACGAGTCCCAAATAGGACGAAACGCGC
modifications: expressed or natural sequence
Fold change in RNA expression between the ON state and the OFF state [1]: 0.6

B27: RA456 (nucleic acid)
DNA: GCGCGTCCTGGATTCGCGGAAACGCGTACATCCAGCTGACGAGTCCCAAATACCGGAATACCAGCATCGTCTTGATGCCCTTGGAAGTCCGGGGACGAAACGCGC
modifications: expressed or natural sequence
Fold change in RNA expression between the ON state and the OFF state [1]: 0.5

B28: RA467 (nucleic acid)
DNA: GCGCGTCCTGGATTCGCGGAAACGAGAATACCAGCATCGTCTTGATGCCCTTGGAAGTCTCGTACATCCAGCTGACGAGTCCCAAATAGGACGAAACGCGC
modifications: expressed or natural sequence
Fold change in RNA expression between the ON state and the OFF state [1]: 0.4

B29: RA448 (nucleic acid)
DNA: GCGCGCGGAATACCAGCATCGTCTTGATGCCCTTGGAAGTCCGTCCTGGATTCGCGGAAACGCGTACATCCAGCTGACGAGTCCCAAATAGGACGAAACGCGC
modifications: expressed or natural sequence
Fold change in RNA expression between the ON state and the OFF state [1]: 0.5
